Test results taken from patent US20240124576A1 (SHANGHAI JEMINCARE PHARMACEUTICAL, published 2024).

T1: human Siglec-15 (Acro, Cat. No. SG5-H52H3) (human, UniProt Q6ZMC9 20-263)
T1 construct: Bought reagent used as the analyte in the Octet assay; also called antigen
T1 sequence (looked up): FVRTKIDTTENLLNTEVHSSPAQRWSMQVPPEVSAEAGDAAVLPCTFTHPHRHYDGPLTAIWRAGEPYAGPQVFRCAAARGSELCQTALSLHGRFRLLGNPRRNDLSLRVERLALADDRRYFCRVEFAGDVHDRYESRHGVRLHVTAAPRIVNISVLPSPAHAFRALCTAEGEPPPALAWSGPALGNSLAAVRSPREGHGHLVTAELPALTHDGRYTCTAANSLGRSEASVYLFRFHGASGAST

T2: extracellular domain of monkey Siglec-15 on monkey S15ECD-293T cells (monkey)
T2 chain: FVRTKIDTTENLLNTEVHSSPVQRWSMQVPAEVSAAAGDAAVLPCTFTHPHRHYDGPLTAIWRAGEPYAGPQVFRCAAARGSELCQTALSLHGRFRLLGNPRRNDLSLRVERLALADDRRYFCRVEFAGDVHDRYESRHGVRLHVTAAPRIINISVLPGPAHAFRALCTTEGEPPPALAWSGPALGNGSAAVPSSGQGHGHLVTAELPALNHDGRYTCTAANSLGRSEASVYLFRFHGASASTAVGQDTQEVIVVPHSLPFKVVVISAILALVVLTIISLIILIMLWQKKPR


How the values were obtained:
[1] = target: T1, human Siglec-15 (Acro, Cat. No. …); experiment: BLI (Octet RED96e), antibody captured on AHC sensor, 30 nM antigen, 1:1 fit; second assay; set-up: Response value: unit not given here
Procedure: (§1) Affinity of Siglec-15 binding protein of the present application to human Siglec-15 (Acro, Cat. No.: SG5-H52H3) was determined using Octet RED96e (Fortebio), both of the antigen and the Siglec-15 binding protein of the present application were diluted with 1×PBST (1×PBS: Sangon, B548117-0500; 0.02% Tween 20: Sigma-aldrich, P1379). The antigen is used at a concentration of 30 nM and the Siglec-15 binding protein of the present application is used at a concentration of 33.3 nM.
(§2) First, a sample was added to a 96-well plate (Greiner bio-one, 655209) in a system of 200 μL/well. Software parameters were then set, the plate temperature was set to 30° C., and the frequency at which the standard kinetic signal was collected was 5.0 Hz. Next, the AHC sensor (Fortébio, Cat. No.: 18-0015) was pre-wetted with 1×PBST for 10 min, then the sample was loaded on the machine for detection, with each cycle containing the following steps: 1) immersing the sample in buffer for 60 s; 2) detecting whether the antigen has non-specific binding to the sensor; 3) regenerating in a 10 mM glycine solution at pH 1.7; 4) immersing in buffer for 60 s; 5) immobilizing the Siglec-15 binding protein of the present application on the sensor for 20 s; 6) immersing the sensor in buffer for 180 s; 7) binding the antigen to the Siglec-15 binding protein of the present application for 180 s; 8) dissociating the antigen with Siglec-15 binding protein of the present application for 10 min; and 9) regenerating the sensor.
(§3) The equilibrium dissociation constant (KD) of the Siglec-15 binding protein of the present application was calculated by determining the binding rate constant (kon) and dissociation rate constant (kdis) of the antigen-Siglec-15 binding protein of the present application in a 1:1 binding manner using Data Analysis 12.0 software fromx Fortebio.

[2] = target: T2, extracellular domain of monkey …; experiment: flow cytometry on monkey S15ECD-293T cells, Alexa 488 secondary antibody
[3] = target: T3, extracellular domain of human Siglec-15 with PDGFR transmembrane domain on human S15ECD-293T cells (human, UniProt Q6ZMC9 20-263; P09619 513-561); experiment: flow cytometry on human S15ECD-293T cells, Alexa 488 secondary antibody; Ab9 on human S15ECD-293T cells
T3 construct: range 20-263;range 513-561; also called human Siglec-15 on the surface of a cell
Excerpt: (§4) The purified Siglec-15 binding protein of the present application was identified by flow cytometry for its function to bind to human S15ECD-293T cells of the present application. Human S15ECD-293T cells prepared by the methods of the present application can be expanded to 90% confluence in 15 cm cell culture dishes, media were pipetted completely, the cells were washed once with PBS buffer (Thermo Fisher, 10010049), then treated with enzyme-free cell dissociation buffer (Versene solution, Thermo Fisher, 15040066) and harvested. The cells were washed twice with PBS buffer and counted, the desired quantity of cells was removed for centrifugation, the cells were resuspended to 2×10^6 cells/ml with FACS buffer (PBS with 2% FBS). After incubation at room temperature for 15 min, the cell suspension was added to a U-shaped 96-well plate (Corning, 3798) at 50 μL/well. The Siglec-15 binding proteins of the present application were serially diluted in FACS buffer, the dilution was added to the above 96-well plate at 50 μL/well and incubated at 4° C. for 1 h. […] The cells were resuspended in 30 μL/well FACS buffer, and detected and analyzed by flow cytometry intellycite plus (Sartorius). […]

[4] = target: T4, full length murine Siglec-15 on murine S15-CT26 cells (murine); experiment: flow cytometry on murine S15-CT26 cells, Alexa 488 secondary antibody
T4 construct: whole, on cells; also called murine Siglec-15 on the surface of a cell

[5] = target: T1, human Siglec-15 (Acro, Cat. No. …); experiment: BLI (Octet RED96e), antibody captured on AHC sensor, 30 nM antigen, 1:1 fit; third assay
Procedure: as §1, §2, §3

[6] = target: T3, extracellular domain of human Siglec-15 …; experiment: flow cytometry on human S15ECD-293T cells, Alexa 488 secondary antibody; Ab15 on human S15ECD-293T cells
Excerpt: as §4

Row | Kd [1] | Response value [1] | koff [1] | kon [1] | EC50 [2] | EC50 [3] | EC50 [4] | Kd [5] | koff [5] | kon [5] | EC50 [6] | Binder
1 | 0.0873 nM | 0.259 | 3.88e-05 s⁻¹ | 445000 M⁻¹ s⁻¹ | 0.922 nM | 1.52 nM | 3.25 nM | 0.0691 nM | 3.59e-05 s⁻¹ | 519000 M⁻¹ s⁻¹ |  | Ab9, purified Siglec-15 binding protein in the form of IgG1 (antibody, V domains shown, Expressed in ExpiCHO cells in the form of IgG1) VH: EVQLLESGGGLVQPGGSLRLSCAASGFTFSSYAMSWVRQAPGKGLEWVSTISGGGGSTYYADSVKGRFTISRDNSKNTLYLQMNSLRAEDTAVYYCAKAIGSSWYSDAFDLWGQGTMVTVSS VL: DIQMTQSPSSVSASVGDRVTITCRASQDISDWLAWYQQKPGKAPKLLIYVASSLQSGVPSRFSGSGSGTDFTLTISSLQPEDFATYYCQQSYSIPYTFGQGTKLEIKR
2 | 0.073 nM | 0.361 | 3.93e-05 s⁻¹ | 538000 M⁻¹ s⁻¹ | 0.475 nM |  | 1.83 nM | 0.0916 nM | 4.35e-05 s⁻¹ | 475000 M⁻¹ s⁻¹ | 0.475 nM | Ab15, purified Siglec-15 binding protein in the form of IgG1 (antibody, V domains shown, Expressed in ExpiCHO cells in the form of IgG1) VH: EVQLLESGGGLVQPGGSLRLSCAASGFTFSSYAMSWVRQAPGKGLEWVSTITGGGESTYYADSVKGRFTISRDNSKNTLYLQMNSLRAEDTAVYYCAKAIGSSWYSDAFDLWGQGTMVTVSS VL: DIQMTQSPSSVSASVGDRVTITCRASQDISSWLAWYQQKPGKAPKLLIYVASYIHSGVPSRFSGSGSGTDFTLTISSLQPEDFATYYCQQSYSIPYTFGQGTKLEIKR
